According to US20090311267A1:
One block for each substance: values may come before it.

How the values were obtained:
[1] = biological target: baboon platelet GPIb (on baboon platelets) (baboon (Papio ursinus)); test: cell-based or functional assay
[2] = biological target: baboon platelet GPIb (on baboon platelets) (baboon (Papio ursinus)); test: 125I-labelled fragment on baboon platelets in plasma
[3] = biological target: baboon platelet GPIb (on baboon platelets) (baboon (Papio ursinus)); test: GPIb occupancy on baboon platelets, 30 minutes after bolus of 2 mg/kg
[4] = biological target: baboon platelet GPIb (on baboon platelets) (baboon (Papio ursinus)); test: GPIb occupancy on baboon platelets, 30 minutes after bolus of 4 mg/kg
[5] = biological target: baboon platelet GPIb (on baboon platelets) (baboon (Papio ursinus)); test: GPIb occupancy on baboon platelets, 60 minutes after bolus of 2 mg/kg
[6] = biological target: baboon platelet GPIb (on baboon platelets) (baboon (Papio ursinus)); test: GPIb occupancy on baboon platelets, 60 minutes after bolus of 4 mg/kg
[7] = biological target: baboon platelet GPIb (on baboon platelets) (baboon (Papio ursinus)); test: GPIb occupancy on baboon platelets, 150 minutes after bolus of 2 mg/kg
[8] = biological target: baboon platelet GPIb (on baboon platelets) (baboon (Papio ursinus)); test: GPIb occupancy on baboon platelets, 150 minutes after bolus of 4 mg/kg
[9] = biological target: baboon platelet GPIb (on baboon platelets) (baboon (Papio ursinus)); test: GPIb occupancy on baboon platelets, 300 minutes after bolus of 2 mg/kg
[10] = biological target: baboon platelet GPIb (on baboon platelets) (baboon (Papio ursinus)); test: GPIb occupancy on baboon platelets, 300 minutes after bolus of 4 mg/kg
[11] = biological target: baboon platelet GPIb (on baboon platelets) (baboon (Papio ursinus)); test: GPIb occupancy on baboon platelets, 30 minutes after bolus of 600 µg/kg
[12] = biological target: baboon platelet GPIb (on baboon platelets) (baboon (Papio ursinus)); test: GPIb occupancy on baboon platelets, 60 minutes after bolus of 600 µg/kg
[13] = biological target: baboon platelet GPIb (on baboon platelets) (baboon (Papio ursinus)); test: GPIb occupancy on baboon platelets, 150 minutes after bolus of 600 µg/kg
[14] = biological target: baboon platelet GPIb (on baboon platelets) (baboon (Papio ursinus)); test: GPIb occupancy on baboon platelets, 300 minutes after bolus of 600 µg/kg
[15] = biological target: purified human von Willebrand factor (human) (UniProt P04275); test: cell-based or functional assay
[16] = biological target: purified human von Willebrand factor (human) (UniProt P04275); test: ELISA: inhibition of plasma or purified vWF binding to coated human collagen type I
[17] = biological target: mouse GPIIb/IIIa (on mouse platelets) (mouse) (UniProt Q9QUM0); test: receptor occupancy on platelets of mice after 10 µg JON/A F(ab)2 i.v.
Chain of mouse GPIIb/IIIa (on mouse platelets) (mouse) (Q9QUM0 32-1033, chain 1 of 2): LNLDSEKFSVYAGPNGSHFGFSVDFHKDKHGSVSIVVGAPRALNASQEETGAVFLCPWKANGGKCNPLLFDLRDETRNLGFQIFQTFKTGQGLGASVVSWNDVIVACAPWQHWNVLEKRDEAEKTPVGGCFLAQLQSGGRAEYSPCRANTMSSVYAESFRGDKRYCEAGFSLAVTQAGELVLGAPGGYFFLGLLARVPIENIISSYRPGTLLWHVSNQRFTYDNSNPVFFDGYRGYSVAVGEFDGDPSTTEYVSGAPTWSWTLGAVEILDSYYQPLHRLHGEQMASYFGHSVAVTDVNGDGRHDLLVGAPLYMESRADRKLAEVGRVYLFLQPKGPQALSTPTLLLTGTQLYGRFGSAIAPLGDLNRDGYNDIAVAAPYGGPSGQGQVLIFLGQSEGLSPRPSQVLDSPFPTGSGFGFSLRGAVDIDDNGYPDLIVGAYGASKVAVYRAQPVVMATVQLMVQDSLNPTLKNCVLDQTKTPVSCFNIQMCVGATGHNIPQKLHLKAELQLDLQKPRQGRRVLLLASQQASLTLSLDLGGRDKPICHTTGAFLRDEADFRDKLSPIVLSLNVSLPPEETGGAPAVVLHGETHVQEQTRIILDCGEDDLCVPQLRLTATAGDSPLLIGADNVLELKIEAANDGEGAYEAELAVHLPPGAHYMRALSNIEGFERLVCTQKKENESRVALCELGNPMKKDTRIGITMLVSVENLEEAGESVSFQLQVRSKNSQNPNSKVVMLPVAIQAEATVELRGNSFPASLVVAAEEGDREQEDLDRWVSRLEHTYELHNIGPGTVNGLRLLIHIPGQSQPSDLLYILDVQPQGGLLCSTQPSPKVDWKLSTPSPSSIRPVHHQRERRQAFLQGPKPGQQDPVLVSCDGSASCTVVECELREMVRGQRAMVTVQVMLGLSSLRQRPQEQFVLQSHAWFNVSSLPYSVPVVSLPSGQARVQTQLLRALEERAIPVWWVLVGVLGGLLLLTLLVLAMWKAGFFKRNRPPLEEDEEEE
Chain of mouse GPIIb/IIIa (on mouse platelets) (mouse) (O54890 26-787, chain 2 of 2, further chain): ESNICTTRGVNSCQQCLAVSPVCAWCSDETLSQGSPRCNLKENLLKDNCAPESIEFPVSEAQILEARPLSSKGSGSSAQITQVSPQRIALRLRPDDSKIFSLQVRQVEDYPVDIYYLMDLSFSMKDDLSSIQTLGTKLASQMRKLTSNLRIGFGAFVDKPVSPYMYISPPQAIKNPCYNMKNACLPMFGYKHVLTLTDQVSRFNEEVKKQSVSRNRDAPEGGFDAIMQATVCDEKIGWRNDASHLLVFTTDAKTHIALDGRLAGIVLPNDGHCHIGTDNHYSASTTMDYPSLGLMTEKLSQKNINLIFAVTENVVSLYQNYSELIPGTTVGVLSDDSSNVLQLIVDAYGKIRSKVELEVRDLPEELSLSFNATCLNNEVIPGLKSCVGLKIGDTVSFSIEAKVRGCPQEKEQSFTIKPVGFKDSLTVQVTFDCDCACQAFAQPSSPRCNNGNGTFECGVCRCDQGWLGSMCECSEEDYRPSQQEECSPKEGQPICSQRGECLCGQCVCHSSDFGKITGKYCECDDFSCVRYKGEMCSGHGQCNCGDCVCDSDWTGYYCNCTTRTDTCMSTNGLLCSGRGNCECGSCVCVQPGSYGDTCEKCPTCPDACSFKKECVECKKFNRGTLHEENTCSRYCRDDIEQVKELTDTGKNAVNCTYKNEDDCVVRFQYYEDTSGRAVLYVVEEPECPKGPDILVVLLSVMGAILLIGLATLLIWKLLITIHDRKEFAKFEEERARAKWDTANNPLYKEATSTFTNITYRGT

[18] = biological target: mouse GPIIb/IIIa (on mouse platelets) (mouse) (UniProt Q9QUM0); test: receptor occupancy on platelets of mice after 20 µg JON/A F(ab)2 i.v.
[19] = biological target: mouse GPIIb/IIIa (on mouse platelets) (mouse) (UniProt Q9QUM0); test: receptor occupancy on platelets of mice after 100 µg JON/A F(ab)2 i.v.
[20] = biological target: human collagen type I (human) (UniProt P02452); test: ex vivo ELISA, baboon plasma vWF on human collagen type I, % of pre-sample; 82D6A3 300 µg/kg, 24 h
Chain of human collagen type I (human) (P02452 162-1218, chain 1 of 2): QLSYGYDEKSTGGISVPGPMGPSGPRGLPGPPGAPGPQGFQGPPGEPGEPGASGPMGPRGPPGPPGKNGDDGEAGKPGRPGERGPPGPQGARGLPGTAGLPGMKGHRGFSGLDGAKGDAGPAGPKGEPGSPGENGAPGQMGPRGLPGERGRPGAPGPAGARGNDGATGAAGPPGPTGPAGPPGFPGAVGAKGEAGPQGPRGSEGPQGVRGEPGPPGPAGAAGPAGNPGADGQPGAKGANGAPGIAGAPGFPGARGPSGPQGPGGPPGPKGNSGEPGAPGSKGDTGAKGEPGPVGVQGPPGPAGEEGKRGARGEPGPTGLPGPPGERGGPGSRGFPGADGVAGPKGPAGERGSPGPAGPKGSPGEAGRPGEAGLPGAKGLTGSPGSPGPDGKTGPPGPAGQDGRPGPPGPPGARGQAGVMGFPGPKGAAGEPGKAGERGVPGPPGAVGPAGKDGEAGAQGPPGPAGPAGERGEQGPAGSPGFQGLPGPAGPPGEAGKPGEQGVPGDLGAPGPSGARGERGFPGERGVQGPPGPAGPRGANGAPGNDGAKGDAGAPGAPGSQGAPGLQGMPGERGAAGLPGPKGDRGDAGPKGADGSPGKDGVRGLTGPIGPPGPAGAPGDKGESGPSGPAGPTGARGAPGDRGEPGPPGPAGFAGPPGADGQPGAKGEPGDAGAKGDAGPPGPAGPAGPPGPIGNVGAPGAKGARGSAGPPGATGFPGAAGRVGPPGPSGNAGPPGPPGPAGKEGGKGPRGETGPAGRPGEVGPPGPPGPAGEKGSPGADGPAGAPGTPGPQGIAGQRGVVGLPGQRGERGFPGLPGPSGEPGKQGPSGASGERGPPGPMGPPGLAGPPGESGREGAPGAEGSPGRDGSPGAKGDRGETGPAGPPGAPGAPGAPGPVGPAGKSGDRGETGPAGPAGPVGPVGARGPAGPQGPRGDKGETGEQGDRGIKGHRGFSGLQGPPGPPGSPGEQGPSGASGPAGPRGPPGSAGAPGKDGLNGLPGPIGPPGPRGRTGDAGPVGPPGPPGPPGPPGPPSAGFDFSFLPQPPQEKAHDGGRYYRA
Chain of human collagen type I (human) (P08123 80-1119, chain 2 of 2, further chain): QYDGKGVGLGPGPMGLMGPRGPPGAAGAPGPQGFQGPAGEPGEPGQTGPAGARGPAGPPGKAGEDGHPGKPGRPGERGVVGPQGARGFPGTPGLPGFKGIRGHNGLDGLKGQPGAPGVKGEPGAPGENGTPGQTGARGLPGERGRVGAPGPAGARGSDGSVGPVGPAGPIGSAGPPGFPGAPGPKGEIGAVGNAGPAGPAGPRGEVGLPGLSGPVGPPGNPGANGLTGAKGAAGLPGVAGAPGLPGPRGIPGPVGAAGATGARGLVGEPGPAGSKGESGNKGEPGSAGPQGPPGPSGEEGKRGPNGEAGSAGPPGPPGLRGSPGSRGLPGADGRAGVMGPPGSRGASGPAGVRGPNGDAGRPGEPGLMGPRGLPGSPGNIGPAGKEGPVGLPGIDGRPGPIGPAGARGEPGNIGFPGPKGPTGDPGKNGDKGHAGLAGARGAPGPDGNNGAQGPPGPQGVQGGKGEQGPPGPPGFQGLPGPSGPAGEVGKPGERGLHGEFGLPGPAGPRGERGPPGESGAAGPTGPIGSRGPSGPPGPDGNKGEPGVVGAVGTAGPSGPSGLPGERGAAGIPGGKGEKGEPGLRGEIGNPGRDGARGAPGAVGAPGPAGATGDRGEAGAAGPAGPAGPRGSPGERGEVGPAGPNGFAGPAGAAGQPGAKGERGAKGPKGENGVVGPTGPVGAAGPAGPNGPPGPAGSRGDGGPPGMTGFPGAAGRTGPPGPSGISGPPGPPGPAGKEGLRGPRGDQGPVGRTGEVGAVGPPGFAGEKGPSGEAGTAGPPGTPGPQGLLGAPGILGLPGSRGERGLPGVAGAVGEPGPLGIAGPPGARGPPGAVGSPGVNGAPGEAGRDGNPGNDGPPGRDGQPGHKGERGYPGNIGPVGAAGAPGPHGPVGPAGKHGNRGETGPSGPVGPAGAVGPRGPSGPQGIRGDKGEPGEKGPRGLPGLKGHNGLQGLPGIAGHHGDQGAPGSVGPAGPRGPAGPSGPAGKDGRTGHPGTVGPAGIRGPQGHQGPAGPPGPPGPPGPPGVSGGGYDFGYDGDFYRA

[21] = biological target: human collagen type I (human) (UniProt P02452); test: ex vivo ELISA, baboon plasma vWF on human collagen type I, % of pre-sample; 82D6A3 300 µg/kg, 48 h
[22] = biological target: human collagen type I (human) (UniProt P02452); test: ex vivo ELISA, baboon plasma vWF on human collagen type I, % of pre-sample; 82D6A3 600 µg/kg, 24 h
[23] = biological target: human collagen type I (human) (UniProt P02452); test: ex vivo ELISA, baboon plasma vWF on human collagen type I, % of pre-sample; 82D6A3 100 µg/kg, 30 min
[24] = biological target: human collagen type I (human) (UniProt P02452); test: ex vivo ELISA, baboon plasma vWF on human collagen type I, % of pre-sample; 82D6A3 100 µg/kg, 60 min
[25] = biological target: human collagen type I (human) (UniProt P02452); test: ex vivo ELISA, baboon plasma vWF on human collagen type I, % of pre-sample; 82D6A3 300 µg/kg, 30 min
[26] = biological target: human collagen type I (human) (UniProt P02452); test: ex vivo ELISA, baboon plasma vWF on human collagen type I, % of pre-sample; 82D6A3 300 µg/kg, 60 min
[27] = biological target: human collagen type I (human) (UniProt P02452); test: ex vivo ELISA, baboon plasma vWF on human collagen type I, % of pre-sample; 82D6A3 600 µg/kg, 30 min
[28] = biological target: human collagen type I (human) (UniProt P02452); test: ex vivo ELISA, baboon plasma vWF on human collagen type I, % of pre-sample; 82D6A3 600 µg/kg, 60 min
[29] = biological target: human collagen type I (human) (UniProt P02452); test: ex vivo ELISA, baboon plasma vWF on human collagen type I, % of pre-sample; 82D6A3 300 µg/kg, 150 min
[30] = biological target: human collagen type I (human) (UniProt P02452); test: ex vivo ELISA, baboon plasma vWF on human collagen type I, % of pre-sample; 82D6A3 300 µg/kg, 300 min
[31] = biological target: human collagen type I (human) (UniProt P02452); test: ex vivo ELISA, baboon plasma vWF on human collagen type I, % of pre-sample; 82D6A3 600 µg/kg, 150 min
[32] = biological target: human collagen type I (human) (UniProt P02452); test: ex vivo ELISA, baboon plasma vWF on human collagen type I, % of pre-sample; 82D6A3 600 µg/kg, 300 min
[33] = biological target: human collagen type I (human) (UniProt P02452); test: ex vivo ELISA, baboon plasma vWF on human collagen type I, % of pre-sample; 82D6A3 100 µg/kg group, 0 min
[34] = biological target: human collagen type I (human) (UniProt P02452); test: ex vivo ELISA, baboon plasma vWF on human collagen type I, % of pre-sample; 82D6A3 300 µg/kg group, 0 min
[35] = biological target: human collagen type I (human) (UniProt P02452); test: ex vivo ELISA, baboon plasma vWF on human collagen type I, % of pre-sample; 82D6A3 600 µg/kg group, 0 min

Chain of baboon platelet GPIb (on baboon platelets) (baboon (Papio ursinus)) (A0A096 entry or part of it limits assumed, form in doubt): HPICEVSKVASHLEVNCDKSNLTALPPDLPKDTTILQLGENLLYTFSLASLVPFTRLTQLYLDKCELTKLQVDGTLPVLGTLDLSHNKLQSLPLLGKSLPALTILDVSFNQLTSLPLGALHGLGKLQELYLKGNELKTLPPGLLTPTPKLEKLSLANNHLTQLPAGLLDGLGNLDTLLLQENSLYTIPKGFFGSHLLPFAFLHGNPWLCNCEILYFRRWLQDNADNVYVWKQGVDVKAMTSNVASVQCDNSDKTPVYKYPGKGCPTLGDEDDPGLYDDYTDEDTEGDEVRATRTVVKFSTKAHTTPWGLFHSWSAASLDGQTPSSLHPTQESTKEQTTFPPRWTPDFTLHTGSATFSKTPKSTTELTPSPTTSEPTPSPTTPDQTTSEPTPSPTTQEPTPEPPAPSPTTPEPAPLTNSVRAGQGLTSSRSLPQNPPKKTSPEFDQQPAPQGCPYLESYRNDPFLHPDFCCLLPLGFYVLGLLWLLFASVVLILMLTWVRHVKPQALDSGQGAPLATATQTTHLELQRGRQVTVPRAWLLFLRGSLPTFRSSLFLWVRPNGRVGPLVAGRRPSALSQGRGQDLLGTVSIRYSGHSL

% inhibition of ex vivo ristocetin-induced (1.5 mg/mL) platelet agglutination; after 160 µg/kg, time 270 min [1]: 8%
% inhibition of ex vivo ristocetin-induced (1.5 mg/mL) platelet agglutination; after 640 µg/kg, time 270 min [1]: 15%
% inhibition of ex vivo ristocetin-induced (1.5 mg/mL) platelet agglutination; after 640 µg/kg, time 24 h [1]: 7%
% inhibition of ex vivo ristocetin-induced (1.5 mg/mL) platelet agglutination; dose 80 µg/kg, time 90 min [1]: 26%
% inhibition of ex vivo ristocetin-induced (1.5 mg/mL) platelet agglutination; dose 160 µg/kg, time 150 min [1]: 47%
% inhibition of ex vivo ristocetin-induced (1.5 mg/mL) platelet agglutination; dose 320 µg/kg, time 90 min [1]: 25%
% inhibition of ex vivo ristocetin-induced (1.5 mg/mL) platelet agglutination; dose 640 µg/kg, time 150 min [1]: 80%
IC50 of ristocetin-induced baboon platelet aggregation [1]: 40 nM
ex vivo ristocetin-induced platelet aggregation, % of the response before injection; 600 µg/kg, 60 minutes [1]: 16.8%
ex vivo ristocetin-induced platelet aggregation, % of the response before injection; 600 µg/kg, 150 minutes [1]: 68.8%
ex vivo ristocetin-induced platelet aggregation, % of the response before injection; 2 mg/kg, 60 minutes [1]: 5.2%
ex vivo ristocetin-induced platelet aggregation, % of the response before injection; 2 mg/kg, 150 minutes [1]: 19.2%
ex vivo ristocetin-induced platelet aggregation, % of the response before injection; 4 mg/kg, 60 minutes [1]: 2%
ex vivo ristocetin-induced platelet aggregation, % of the response before injection; 4 mg/kg, 150 minutes [1]: 16%
KD50 (half saturation) [2]: 49.2 nmol/L
receptor occupancy [3]: 69.3%
receptor occupancy [4]: 84%
receptor occupancy [5]: 64.8%
receptor occupancy [6]: 79%
receptor occupancy [7]: 43.9%
receptor occupancy [8]: 45.6%
receptor occupancy [9]: 12.9%
receptor occupancy [10]: 31.3%
receptor occupancy [11]: 34.5%
receptor occupancy [12]: 28.6%
receptor occupancy [13]: 17.1%
receptor occupancy [14]: 6.3%
Substance: 6B4 Fab fragments

concentration for complete inhibition of platelet deposition on human collagen type I under flow, shear rate 1300 s^-1 [15]: 10 µg/mL
IC50 [16]: 1 µg/mL
Substance: 82D6A3 F(ab) fragment (Fab)

Receptor occupancy, % [17]: 67.8%
Receptor occupancy, % [18]: 78.4%
Receptor occupancy, % [19]: > 95%
Substance: JON/A F(ab)2 (antibody)

collagen binding (%) [20]: 91%
collagen binding (%) [21]: 93%
collagen binding (%) [22]: 45%
collagen binding (%) [23]: 64%
collagen binding (%) [24]: 69%
collagen binding (%) [25]: 4%
collagen binding (%) [26]: 4%
collagen binding (%) [27]: 4%
collagen binding (%) [28]: 3.5%
collagen binding (%) [29]: 4%
collagen binding (%) [30]: 4%
collagen binding (%) [31]: 3.52%
collagen binding (%) [32]: 4%
collagen binding (%) [33]: 101%
collagen binding (%) [34]: 101%
collagen binding (%) [35]: 100%
Substance: baboon vWF (in baboon plasma), A0A096N8H2 764-2813
